Assay results reported in patent US20240285753A1 (DUKE UNIVERSITY, published 2024).
Where two headings read alike, the source gives them in different places.

Assays:
[1] = biological target: T1, S2hlx-Ex25; assay: ELISA; antigen coated, mAb titrated
T1 chain: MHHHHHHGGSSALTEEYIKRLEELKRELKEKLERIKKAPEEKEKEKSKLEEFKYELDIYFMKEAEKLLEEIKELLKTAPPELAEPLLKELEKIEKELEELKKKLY

[2] = biological target: T2, SARS-CoV-2 spike (WA-2, 2P) (SARS-CoV-2, UniProt P0DTC2 14-1208); assay: ELISA, coated spike, mAb titrated
[3] = biological target: T2, SARS-CoV-2 spike (WA-2, 2P); assay: ELISA, coated spike, mAb titrated; remark: listed apart in the source
[4] = biological target: SARS-CoV-2 spike (WA-2, 2P) (SARS-CoV-2, UniProt P0DTC2 14-1208)
[5] = biological target: T3, S2hlx-Ex34; assay: SPR, mAb captured, scaffold as analyte
T3 chain: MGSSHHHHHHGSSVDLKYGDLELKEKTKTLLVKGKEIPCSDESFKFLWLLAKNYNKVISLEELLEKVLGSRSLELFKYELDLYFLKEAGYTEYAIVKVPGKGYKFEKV

[6] = biological target: T4, S2hlx-Ex37; assay: SPR, mAb captured, scaffold as analyte
T4 chain: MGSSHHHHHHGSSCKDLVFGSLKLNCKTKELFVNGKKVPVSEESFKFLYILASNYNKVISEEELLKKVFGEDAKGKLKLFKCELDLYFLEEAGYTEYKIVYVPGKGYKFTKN

[7] = biological target: T5, S2hlx-Ex54; assay: SPR, mAb captured, scaffold as analyte
T5 chain: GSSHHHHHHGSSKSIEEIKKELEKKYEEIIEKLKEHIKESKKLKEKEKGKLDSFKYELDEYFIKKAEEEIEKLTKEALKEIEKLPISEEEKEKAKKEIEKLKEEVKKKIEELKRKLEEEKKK

[8] = biological target: T6, S2hlx-Ex15 F1148A; assay: ELISA; antigen coated, mAb titrated
T6 epitope scaffold: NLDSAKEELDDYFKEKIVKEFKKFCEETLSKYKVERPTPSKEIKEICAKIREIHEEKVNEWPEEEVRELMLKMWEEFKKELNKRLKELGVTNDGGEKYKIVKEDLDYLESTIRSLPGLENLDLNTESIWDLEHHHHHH

[9] = biological target: T7, S2hlx-Ex15; assay: ELISA; antigen coated, mAb titrated
T7 chain: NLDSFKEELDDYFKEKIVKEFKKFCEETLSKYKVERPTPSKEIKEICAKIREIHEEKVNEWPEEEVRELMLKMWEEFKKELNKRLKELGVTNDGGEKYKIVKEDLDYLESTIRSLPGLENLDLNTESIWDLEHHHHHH

[10] = biological target: S2hlx-Ex2-Trx; assay: ELISA, coated antigen, mAb titrated
[11] = biological target: S2hlx-Ex4-Trx; assay: ELISA, coated antigen, mAb titrated
[12] = biological target: T8, S2hlx-Ex46; assay: ELISA; antigen coated, mAb titrated
T8 epitope scaffold: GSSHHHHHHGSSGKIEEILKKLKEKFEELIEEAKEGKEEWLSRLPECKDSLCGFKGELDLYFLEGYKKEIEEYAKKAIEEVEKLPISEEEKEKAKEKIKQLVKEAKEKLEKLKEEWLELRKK

[13] = biological target: T3, S2hlx-Ex34; assay: ELISA; antigen coated, mAb titrated
[14] = biological target: T5, S2hlx-Ex54; assay: ELISA; antigen coated, mAb titrated
[15] = biological target: T7, S2hlx-Ex15; assay: SPR, mAb captured, antigen as analyte
[16] = biological target: T9, S2hlx-Ex17; assay: SPR, mAb captured, antigen as analyte
T9 chain: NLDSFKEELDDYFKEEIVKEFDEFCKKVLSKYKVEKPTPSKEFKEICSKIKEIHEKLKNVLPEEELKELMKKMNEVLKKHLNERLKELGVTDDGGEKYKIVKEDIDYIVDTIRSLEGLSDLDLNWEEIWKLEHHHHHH

[17] = biological target: T10, S2hlx-Ex20; assay: SPR, mAb captured, antigen as analyte
T10 chain: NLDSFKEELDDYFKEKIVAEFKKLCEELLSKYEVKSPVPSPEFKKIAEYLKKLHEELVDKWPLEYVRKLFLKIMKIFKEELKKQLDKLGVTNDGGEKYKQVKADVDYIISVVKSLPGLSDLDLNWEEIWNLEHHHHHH

[18] = biological target: T7, S2hlx-Ex15; assay: SPR, mAb captured, antigen as analyte
[19] = biological target: T9, S2hlx-Ex17; assay: SPR, mAb captured, antigen as analyte
[20] = biological target: T10, S2hlx-Ex20; assay: SPR, mAb captured, antigen as analyte
[21] = biological target: T11, S2hlx-Ex8-Trx; assay: SPR, mAb captured, antigen as analyte
T11 chain: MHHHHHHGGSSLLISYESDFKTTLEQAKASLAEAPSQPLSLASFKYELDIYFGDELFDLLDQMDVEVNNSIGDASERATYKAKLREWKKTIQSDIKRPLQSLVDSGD

[22] = biological target: T1, S2hlx-Ex25; assay: SPR, mAb captured, antigen as analyte
[23] = biological target: T3, S2hlx-Ex34; assay: SPR, mAb captured, antigen as analyte
[24] = biological target: T1, S2hlx-Ex25; assay: ELISA; antigen coated, mAb titrated
[25] = biological target: T3, S2hlx-Ex34; assay: ELISA; antigen coated, mAb titrated
[26] = biological target: T12, S2hlx-Ex35; assay: ELISA; antigen coated, mAb titrated
T12 chain: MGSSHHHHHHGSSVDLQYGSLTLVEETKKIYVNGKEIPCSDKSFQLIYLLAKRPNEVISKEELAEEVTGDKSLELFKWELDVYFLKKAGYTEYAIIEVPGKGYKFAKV

[27] = biological target: T8, S2hlx-Ex46; assay: SPR, single cycle; mAb captured on Protein A, epitope scaffold as analyte
[28] = biological target: T4, S2hlx-Ex37; assay: as above
[29] = biological target: T5, S2hlx-Ex54; assay: as above
[30] = biological target: T2, SARS-CoV-2 spike (WA-2, 2P); assay: ELISA, coated antigen, mAb titrated
[31] = biological target: T13, FP-13; assay: ELISA, coated antigen, mAb titrated
T13 epitope scaffold: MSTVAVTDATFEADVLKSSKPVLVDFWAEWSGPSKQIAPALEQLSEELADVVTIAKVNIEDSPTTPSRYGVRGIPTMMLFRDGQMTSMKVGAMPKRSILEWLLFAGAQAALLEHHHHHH

B1: Cov44-26 (antibody, V domains shown)
VH: QVQLVQSGAEVKKPGASVKVSCKASGYTFSNFYMNWVRQAPGQGLEWVGLISPSAGYTAYAQMFQGRVTMTRDTSTSTVYMELSSLRSEDTAVYYCARVAVAGPNDYWGQGTLVTVSS
VL: EIVLTQSPGTLSLSPGERATLSCRASQSISSSYLAWYQQKPGQAPRLVIFAASTRATGIPDRFSGSGSGTDFTLTITRLEPEDFALYYCQHYRSSPPLWTFGQGTKVEIR
- EC50 (read off the curve) [1]: ~0.02 µg/mL

B2: DH1509 (antibody, V domains shown)
VH: QVQLVESGGGVVQPGRSLRLSCAASGFTLSSHGIHWVRQAPGKGLEWVAVTSFDGRNKKFGDSVKGRFTISRDNSKNTVYLQMNSLRTEDTAVYYCAKDWGDDYSRWYFDLWGRGTLVTVSS
VL: DIQMTQSPSSLSASVGDRVTITCQASHDITKYLNWYQQKPGRAPKLLIYDASNLKTGVPSRFSGSGSGTDFTFTITSLQPEDLATYYCQQSDVLPITFGQGTRLEIK
- EC50 (read off the curve) [2]: ~0.6 µg/mL

B3: DH1498 (antibody, V domains shown)
VH: QVQLQESGPGLVKPSETLSLTCAVSGGSVSSDTYYWSWIRQPPGKGLEWIGYIYNSGSTNYNPSLKSRVTISVDTSKSQFSLNLGSVTAADTAVYYCAREGAGTYPPKNDAFDIWGQGTLVTVSS
VL: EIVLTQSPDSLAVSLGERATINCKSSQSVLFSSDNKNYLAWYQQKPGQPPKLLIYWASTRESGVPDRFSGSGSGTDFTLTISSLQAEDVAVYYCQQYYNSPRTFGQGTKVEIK
- EC50 (read off the curve) [3]: ~0.04 µg/mL

B4: CC40.8 mAb (antibody, V domains shown)
VH: EVQLLESGGGLVQPGGSLRLSCAASGFTFSSYVMTWARQAPGKGLEWVSAISGTGYTYYADSVKGRFTVSRDNSKNTLFLQMSSLRAEDTAVYYCAITMAPVVWGQGTTVTVSS
VL: SYELTQPPSVSVSPGQTARITCSGDALPKRYAYWYQQKSGQAPILVIYEDKKRPSGIPERLSGSKSGTVATLTISGAQVEDEADYYCYSTDSSGNHAVFGGGTQLTVL
- Kd [4]: 2.7 nM
- Kd [5]: 486 nM
- Kd [6]: 849 nM
- Kd [7]: 150 nM
- EC50 (read off the curve) [8]: ~0.02 µg/mL
- EC50 (read off the curve) [9]: ~0.02 µg/mL
- EC50 (read off the curve) [10]: ~0.1 µg/mL
- EC50 (read off the curve) [11]: ~0.05 µg/mL
- EC50 (read off the curve) [12]: ~0.2 µg/mL
- EC50 (read off the curve) [1]: ~0.2 µg/mL
- EC50 (read off the curve) [13]: ~0.4 µg/mL
- EC50 (read off the curve) [14]: ~0.04 µg/mL
- Kd [15]: 3.4 nM
- Kd [16]: 27.1 nM
- Kd [17]: 10.6 nM
- Kd [18]: 3.4 nM
- Kd [19]: 27.1 nM
- Kd [20]: 10.6 nM
- Kd [21]: 1230 nM
- Kd [22]: 12.1 µM
- Kd [23]: 3.88 µM
- EC50 (read off the curve) [24]: ~0.01 µg/mL
- EC50 (read off the curve) [25]: ~0.1 µg/mL
- EC50 (read off the curve) [26]: ~0.8 µg/mL
- Kd [27]: 21.5 µM
- Kd [28]: 849 nM
- Kd [29]: 150 nM

B5: inferred UCA of DH1501.1, DH1501.2 and DH1501.3 (antibody, V domains shown)
VH: QVQLVQSGAEVKKPGASVKVSCKASGYTFTSYYMHWVRQAPGQGLEWMGIINPSGGSTSYAQKFQGRVTMTRDTSTSTVYMELSSLRSEDTAVYYCARMSRYGAFDIWGQGIMVTVSS
VL: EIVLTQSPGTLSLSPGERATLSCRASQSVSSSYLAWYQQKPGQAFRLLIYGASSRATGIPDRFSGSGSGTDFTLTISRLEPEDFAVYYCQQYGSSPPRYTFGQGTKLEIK
- EC50 (read off the curve) [30]: ~0.02 µg/mL

B6: COV44-79 (antibody, V domains shown)
VH: QVQLVESGGGVVQPGRSLRLSCAASGLTFSGYAMHWVRQAPGKGLEWVAVISRDARNKYYADSVKGRFTISRDNSKKTVYLEMNSLRVEDTAVYYCAILIIPGITEPGSPDALDIWGQGTMVSVSS
VL: DIQMTQSPSSMSASVGDRVTITCRASQDISKWLAWYQQRPGKAPKLLIYAASSLQSGVPSRFSGSGSGTDFTLTISSLQPEDFATYYCQQASSFPWSITFGQGTRLEIR
- EC50 (read off the curve) [31]: ~3 µg/mL
